# ± gives the standard deviation of the averaged measurements.
# How the values were obtained:
# Saccharomyces cerevisiae [1] = assay: protein stability index of tFT-peptide fusion (C-terminal peptide) (PSI (0-1 scale)); higher = more stable (slower turnover); conditions: genetic background: wild type; temperature: 30 C
# Saccharomyces cerevisiae [2] = assay: as above
# Method: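 MPS profiling in S. cerevisiae of the tFT-X12 degron library: putative degron peptides plus stable controls, 12 aa, fused to the C-terminus of a sfGFP-mCherry timer. Cells are FACS-sorted into 8 mCherry/sfGFP bins and deep-sequenced. PSI runs from 0 (unstable) to 1 (stable). Backgrounds are wild type, das1Δ and doa10Δ at 30 °C, and wild type, das1Δ, cdc34-1 and cdc53-1 at 37 °C; 2-3 technical replicates each.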
# [3] = genetic background: cdc34-1, temperature: 37 C
# [4] = genetic background: cdc53-1, temperature: 37 C
# [5] = genetic background: das1 deletion, temperature: 30 C
# [6] = genetic background: das1 deletion, temperature: 37 C
# [7] = genetic background: doa10 deletion, temperature: 30 C
# [8] = genetic background: wild type, temperature: 30 C
# [9] = genetic background: wild type, temperature: 37 C
# 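Further: PSI is a weighted mean of sequencing reads over stability bins, variants kept only with over 10 reads, mCherry proximal and sfGFP distal, peptide attached via GGGS linker.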
Sequence,protein stability index (Saccharomyces cerevisiae [1]),protein stability index (Saccharomyces cerevisiae [2]; [3]),protein stability index (Saccharomyces cerevisiae [2]; [4]),protein stability index (Saccharomyces cerevisiae [2]; [5]),protein stability index (Saccharomyces cerevisiae [2]; [6]),protein stability index (Saccharomyces cerevisiae [2]; [7]),protein stability index (Saccharomyces cerevisiae [2]; [8]),protein stability index (Saccharomyces cerevisiae [2]; [9])
CLGFWVCCYCLV,0.396 ± 0.029,0.537 ± 0.037,0.589 ± 0.044,0.474 ± 0.006,0.592 ± 0.0093,0.246 ± 0.0084,0.281 ± 0.035,0.48 ± 0.017
CLHWFMVLFRVL,0.119 ± 0.022,0.139 ± 0.051,0.12 ± 0.018,0.296 ± 0.043,0.426 ± 0.0053,0.212 ± 0.013,0.122 ± 0.037,0.203 ± 0.015
CLLLVISSLCSG,0.403 ± 0.011,0.416 ± 0.047,0.462 ± 0.073,0.336 ± 0.014,0.529 ± 0.023,0.261 ± 0.0032,0.301 ± 0.0098,0.4964 ± 0.0038
CLVLCLSIPSPL,0.55 ± 0.08,0.607 ± 0.027,0.6246 ± 0.00068,0.497 ± 0.03,0.6133 ± 0.0046,0.501 ± 0.018,0.5 ± 0.015,0.606 ± 0.012
CLVWLVRIIVLD,0.298 ± 0.048,0.199 ± 0.019,0.268 ± 0.026,0.201 ± 0.031,0.366 ± 0.039,0.206 ± 0.005,0.195 ± 0.048,0.32 ± 0.025
CPFFFFSLIFLF,0.298 ± 0.017,0.16 ± 0.058,0.214 ± 0.044,0.228 ± 0.041,0.329 ± 0.011,0.349 ± 0.025,0.193 ± 0.03,0.284 ± 0.011
CRLFPFPLLAQL,0.488 ± 0.084,0.646 ± 0.034,0.7407 ± 0.003,0.628 ± 0.021,0.7522 ± 0.0063,0.425 ± 0.013,0.415 ± 0.025,0.484 ± 0.023
CSAARKDGLAPL,0.701 ± 0.024,0.697 ± 0.038,0.722 ± 0.02,0.649 ± 0.02,0.7342 ± 0.0011,0.633 ± 0.021,0.649 ± 0.029,0.719 ± 0.032
CSLPVLFLPYYL,0.486 ± 0.14,0.581 ± 0.025,0.5788 ± 0.0043,0.523 ± 0.022,0.625 ± 0.022,0.606 ± 0.014,0.492 ± 0.0051,0.572 ± 0.02
CSPVNGSAVWSI,0.699 ± 0.076,0.688 ± 0.032,0.736 ± 0.016,0.668 ± 0.02,0.7551 ± 0.00081,0.664 ± 0.019,0.667 ± 0.017,0.7093 ± 0.0046
CSSFFLLLFFLF,0.311 ± 0.019,0.351 ± 0.051,0.448 ± 0.018,0.335 ± 0.021,0.451 ± 0.029,0.301 ± 0.021,0.268 ± 0.01,0.407 ± 0.0056
CSWMRSRMWVGG,0.3994 ± 0.0039,0.33 ± 0.051,0.419 ± 0.03,0.422 ± 0.0063,0.36 ± 0.0087,0.454 ± 0.014,0.409 ± 0.013,0.346 ± 0.0053
CTWGRYGGIWLR,0.254 ± 0.058,0.0548 ± 0.007,0.0483 ± 0.033,0.136 ± 0.062,0.144 ± 0.013,0.668 ± 0.034,0.117 ± 0.023,0.11 ± 0.016
CVFCLTVFVRFL,0.243 ± 0.011,0.197 ± 0.0067,0.26 ± 0.018,0.192 ± 0.028,0.346 ± 0.015,0.128 ± 0.014,0.151 ± 0.022,0.2572 ± 0.0012
CVFVWFWCMTWV,0.168 ± 0.0053,0.171 ± 0.089,0.164 ± 0.016,0.0811 ± 0.048,0.313 ± 0.15,0.105 ± 0.069,0.117 ± 0.11,0.345 ± 0.13
CVLFLGQILCVV,0.332 ± 0.0076,0.266 ± 0.018,0.328 ± 0.01,0.28 ± 0.033,0.3857 ± 0.00079,0.236 ± 0.011,0.276 ± 0.017,0.339 ± 0.026
CYSRRGCIYFFF,0.192 ± 0.037,0.564 ± 0.029,0.693 ± 0.009,0.583 ± 0.016,0.698 ± 0.0099,0.0971 ± 0.018,0.101 ± 0.022,0.157 ± 0.0033
DHSIYYGVAKVF,0.163 ± 0.055,0.484 ± 0.017,0.652 ± 0.012,0.5745 ± 0.0018,0.694 ± 0.018,0.0729 ± 0.022,0.0841 ± 0.024,0.09554 ± 0.00036
DKKNCIIIYYKQ,0.147 ± 0.062,0.479 ± 0.053,0.706 ± 0.074,0.653 ± 0.021,0.6973 ± 0.0046,0.0802 ± 0.03,0.0804 ± 0.024,0.106 ± 0.011
DLDLLTKFSKEC,0.466 ± 0.03,0.702 ± 0.028,0.77 ± 0.013,0.628 ± 0.043,0.743 ± 0.028,0.4783 ± 0.0024,0.503 ± 0.025,0.656 ± 0.018
DRHCLVSLSPDG,0.5 ± 0.1,0.64 ± 0.03,0.665 ± 0.03,0.618 ± 0.015,0.686 ± 0.029,0.623 ± 0.016,0.6079 ± 0.0033,0.678 ± 0.033
DRLAVLVLLRVY,0.109 ± 0.017,0.0219 ± 0.0022,0.0458 ± 0.013,0.137 ± 0.041,0.182 ± 0.0035,0.0574 ± 0.01,0.0636 ± 0.018,0.0571 ± 0.016
DRRFLVMISVSL,0.398 ± 0.039,0.33 ± 0.01,0.357 ± 0.016,0.272 ± 0.045,0.458 ± 0.008,0.251 ± 0.0083,0.262 ± 0.028,0.414 ± 0.0086
DRSPLPAIFVAQ,0.681 ± 0.047,0.7 ± 0.028,0.746 ± 0.021,0.674 ± 0.013,0.7428 ± 0.0073,0.665 ± 0.013,0.643 ± 0.012,0.733 ± 0.016
DTAFLLVVVVGR,0.373 ± 0.042,0.309 ± 0.0076,0.358 ± 0.036,0.257 ± 0.028,0.446 ± 0.017,0.213 ± 0.0084,0.232 ± 0.032,0.411 ± 0.029
DYIFVYAVMFMR,0.265 ± 0.045,0.14 ± 0.046,0.292 ± 0.046,0.152 ± 0.026,0.319 ± 0.02,0.116 ± 0.0035,0.118 ± 0.031,0.308 ± 0.02
EFCITAFVSVLT,0.435 ± 0.012,0.452 ± 0.029,0.431 ± 0.017,0.324 ± 0.033,0.483 ± 0.017,0.287 ± 0.011,0.329 ± 0.025,0.462 ± 0.0064
EGLRVSVCAWVM,0.339 ± 0.023,0.38 ± 0.043,0.467 ± 0.0075,0.313 ± 0.03,0.4385 ± 0.0017,0.253 ± 0.019,0.277 ± 0.013,0.421 ± 0.0079
EHIRWLLPKHCL,0.454 ± 0.041,0.681 ± 0.027,0.73 ± 0.026,0.647 ± 0.03,0.725 ± 0.03,0.2907 ± 0.0018,0.314 ± 0.017,0.613 ± 0.063
EIKTEIGKKKKN,0.503 ± 0.0079,0.632 ± 0.2,0.671 ± 0.022,0.723 ± 0.05,0.658 ± 0.045,0.541 ± 0.0061,0.61 ± 0.028,0.608 ± 0.067
